In publication PMC4468156, “Essential Role for an M17 Leucine Aminopeptidase in Encystation of Acanthamoeba castellanii” (PLoS ONE, 2015) one finds activity and Km data, which are given here for 2 molecules.

The target of series [1] is T1, AcLAPr (recombinant AcLAP, M17 leucine aminopeptidase) (Acanthamoeba castellanii, UniProt A0A060A630).
T1 construct: gene LAP; pCold TF vector, E. coli BL21 (pKJE7), Ni-NTA; N-terminal His6-trigger factor tag removed with thrombin
T1 sequence (A0A060A630 1-579): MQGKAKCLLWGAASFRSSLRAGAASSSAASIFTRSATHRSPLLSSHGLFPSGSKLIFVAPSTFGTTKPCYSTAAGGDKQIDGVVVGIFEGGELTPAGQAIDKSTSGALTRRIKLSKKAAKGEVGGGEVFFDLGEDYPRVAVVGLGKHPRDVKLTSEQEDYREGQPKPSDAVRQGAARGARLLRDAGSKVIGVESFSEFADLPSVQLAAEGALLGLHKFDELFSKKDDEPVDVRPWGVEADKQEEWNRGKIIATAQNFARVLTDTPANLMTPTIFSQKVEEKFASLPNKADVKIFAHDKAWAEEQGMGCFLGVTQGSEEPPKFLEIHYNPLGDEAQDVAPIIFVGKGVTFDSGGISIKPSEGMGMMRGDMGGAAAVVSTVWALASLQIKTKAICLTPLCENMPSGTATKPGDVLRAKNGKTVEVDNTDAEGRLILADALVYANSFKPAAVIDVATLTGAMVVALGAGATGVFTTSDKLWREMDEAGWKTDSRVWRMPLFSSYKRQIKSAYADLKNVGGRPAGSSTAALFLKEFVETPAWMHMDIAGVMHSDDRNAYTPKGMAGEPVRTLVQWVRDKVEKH
Briefly: inhibition of Leu-AMC hydrolysis, fluorometric. The series is classed as biochemical. The text has this:
inhibition of Leu-AMC hydrolysis, fluorometric on AcLAPr (recombinant AcLAP, M17 leucine aminopeptidase)

Substrate in series [2]: Cc1cc(=O)oc2cc(NC(=O)[C@@H](N)CC(C)C)ccc12
Put plainly: purified protein. The settings on record: 50 mM Tris-HCl, 1 mM MnCl2, pH 8.0, 37°C, 25 nM enzyme. The series is classed as biochemical, Acanthamoeba castellanii.

Substrate in series [3]: CSCC[C@H](N)C(=O)Nc1ccc2c(C)cc(=O)oc2c1
Briefly: purified protein. In kind it is biochemical, Acanthamoeba castellanii. The settings on record: 50 mM Tris-HCl, 1 mM MnCl2, pH 8.0, 37°C, 25 nM enzyme.

Substrate in series [4]: Cc1cc(=O)oc2cc(NC(=O)[C@@H](N)CCCNC(=N)N)ccc12
Put plainly: purified protein. The series is classed as biochemical, Acanthamoeba castellanii. The settings on record: 50 mM Tris-HCl, 1 mM MnCl2, pH 8.0, 37°C, 25 nM enzyme.

On to `CC(C)C[C@H](NC(=O)[C@@H](O)[C@H](N)Cc1ccccc1)C(=O)O` [bestatin], for which the activity at 10 µM in series [1] was determined as 22.5 ± 1.13%.

B1: AcLAPr (recombinant AcLAP, M17 leucine aminopeptidase) (Acanthamoeba castellanii) (protein)
chain: MQGKAKCLLWGAASFRSSLRAGAASSSAASIFTRSATHRSPLLSSHGLFPSGSKLIFVAPSTFGTTKPCYSTAAGGDKQIDGVVVGIFEGGELTPAGQAIDKSTSGALTRRIKLSKKAAKGEVGGGEVFFDLGEDYPRVAVVGLGKHPRDVKLTSEQEDYREGQPKPSDAVRQGAARGARLLRDAGSKVIGVESFSEFADLPSVQLAAEGALLGLHKFDELFSKKDDEPVDVRPWGVEADKQEEWNRGKIIATAQNFARVLTDTPANLMTPTIFSQKVEEKFASLPNKADVKIFAHDKAWAEEQGMGCFLGVTQGSEEPPKFLEIHYNPLGDEAQDVAPIIFVGKGVTFDSGGISIKPSEGMGMMRGDMGGAAAVVSTVWALASLQIKTKAICLTPLCENMPSGTATKPGDVLRAKNGKTVEVDNTDAEGRLILADALVYANSFKPAAVIDVATLTGAMVVALGAGATGVFTTSDKLWREMDEAGWKTDSRVWRMPLFSSYKRQIKSAYADLKNVGGRPAGSSTAALFLKEFVETPAWMHMDIAGVMHSDDRNAYTPKGMAGEPVRTLVQWVRDKVEKH
notes: pCold TF vector, E. coli BL21 (pKJE7), Ni-NTA; N-terminal His6-trigger factor tag removed with thrombin
As to B1, the Km worked out at 13.51 ± 1.31 µM in “purified protein [2]”, 3.77 ± 0.46 µM in “purified protein [3]” and 41.37 ± 0.05 µM in “purified protein [4]”.

The Km is the substrate concentration at which the rate is half of its maximum.
